In publication PMC9190012, “Heparin activation of protein Z-dependent protease inhibitor (ZPI) allosterically blocks protein Z activation through an extended heparin-binding site” (The Journal of Biological Chemistry, 2022):
Where a chain is given by its changes, count along the chain named. Numbers in names are those of the source.

B1: K104A/R105A/K113A/K116A/K125A/R128A: ZPI mutant of the six basic residues in the helix C/D site (protein, UniProt Q9UK55 22-444, looked up, variant K104A R105A K113A K116A K125A R128A)
Protein Z-dependent protease …: LAPSPQSPETPAPQNQTSRVVQAPKEEEEDEQEASEEKASEEEKAWLMASRQQLAKETSNFGFSLLRKISMRHDGNMVFSPFGMSLAMTGLMLGATGPTETQIAAGLHLQALAPTAPGLLPSLFAGLAETLSRNLELGLTQGSFAFIHKDFDVKETFFNLSKRYFDTECVPMNFRNASQAKRLMNHYINKETRGKIPKLFDEINPETKLILVDYILFKGKWLTPFDPVFTEVDTFHLDKYKTIKVPMMYGAGKFASTFDKNFRCHVLKLPYQGNATMLVVLMEKMGDHLALEDYLTTDLVETWLRNMKTRNMEVFFPKFKLDQKYEMHELLRQMGIRRIFSPFADLSELSATGRNLQVSRVLQRTVIEVDERGTEAVAGILSEITAYSMPPVIKVDRPFHFMIYEETSGMLLFLGRVVNPTLL
B2: K253A/K260A/R263A/R305A/K308A/R310A: ZPI helix H site sextuple mutant (protein, UniProt Q9UK55 22-444, looked up, variant K253A K260A R263A R305A K308A R310A)
Protein Z-dependent protease …: LAPSPQSPETPAPQNQTSRVVQAPKEEEEDEQEASEEKASEEEKAWLMASRQQLAKETSNFGFSLLRKISMRHDGNMVFSPFGMSLAMTGLMLGATGPTETQIKRGLHLQALKPTKPGLLPSLFKGLRETLSRNLELGLTQGSFAFIHKDFDVKETFFNLSKRYFDTECVPMNFRNASQAKRLMNHYINKETRGKIPKLFDEINPETKLILVDYILFKGKWLTPFDPVFTEVDTFHLDKYKTIKVPMMYGAGAFASTFDANFACHVLKLPYQGNATMLVVLMEKMGDHLALEDYLTTDLVETWLANMATANMEVFFPKFKLDQKYEMHELLRQMGIRRIFSPFADLSELSATGRNLQVSRVLQRTVIEVDERGTEAVAGILSEITAYSMPPVIKVDRPFHFMIYEETSGMLLFLGRVVNPTLL
B3: R263A: ZPI helix H site mutant (protein, UniProt Q9UK55 22-444, looked up, variant R263A)
Protein Z-dependent protease …: B2 Protein Z-dependent protease … with A253K, A260K, A305R, A308K, A310R
B4: D298K/E301R/T302K/T309K: ZPI mutant with the helix H heparin-binding site of PCI grafted onto homologous ZPI residues (protein, UniProt Q9UK55 22-444, looked up, variant D298K E301R T302K T309K)
Protein Z-dependent protease …: B1 Protein Z-dependent protease … with A104K, A105R, A113K, A116K, A125K, A128R, D298K, E301R, T302K, T309K
B5: K253A: ZPI helix H site mutant (protein, UniProt Q9UK55 22-444, looked up, variant K253A)
Protein Z-dependent protease …: B2 Protein Z-dependent protease … with A260K, A263R, A305R, A308K, A310R

molecular target: T1, FXa (Homo sapiens, UniProt P00742); test: H50 heparin-accelerated ZPI–FXa reactions: kinetics and stoichiometry of inhibition; format: biochemical; conditions: 1 μM H50
T1 construct: purchased Enzyme Research Laboratories
T1 sequence (P00742 235-488 limits assumed): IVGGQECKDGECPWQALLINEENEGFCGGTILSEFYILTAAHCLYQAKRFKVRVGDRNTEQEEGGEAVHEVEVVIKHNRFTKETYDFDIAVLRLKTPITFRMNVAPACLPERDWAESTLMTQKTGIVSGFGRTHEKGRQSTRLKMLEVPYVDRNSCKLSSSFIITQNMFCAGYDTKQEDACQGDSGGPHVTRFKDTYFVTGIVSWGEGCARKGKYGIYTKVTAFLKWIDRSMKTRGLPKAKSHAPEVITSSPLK
T1 sequence (P00742 41-179 limits assumed): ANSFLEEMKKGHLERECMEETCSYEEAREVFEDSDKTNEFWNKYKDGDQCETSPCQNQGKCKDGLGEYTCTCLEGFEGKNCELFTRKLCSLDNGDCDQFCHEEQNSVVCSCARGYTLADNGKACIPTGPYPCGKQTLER
Procedure: Heparin accelerating effects on the kinetics of ZPI–FXa reactions were evaluated as a function of heparin concentration under pseudo–first-order conditions (i.e., with a large molar excess of inhibitor over protease) by incubating reaction mixtures of 100 μl containing 70 nM ZPI and ∼0.5 nM FXa in the absence or presence of varying levels of H50 ranging from 10^−9 to 10^−4 M in 20 mM Tris buffer (pH 7.4), 0.1 M NaCl, 0.1% PEG 8000, 0.1 mg/ml BSA, and 2.5 mM CaCl2 at 25 °C for reaction times of 2 to 5 min. Reactions were quenched by adding 1 ml of 50 μM Pefafluor FXa substrate (Centerchem, Inc) containing 50 μg/ml polybrene and 5 mM EDTA. The initial linear rate of substrate hydrolysis was monitored at an excitation wavelength of 380 nm and an emission wavelength of 440 nm. The observed pseudo–first-order rate constant for reactions (kobs) was calculated from the equation, kobs=In([vo-v∞]/[vt-v∞])/t
where vt and v∞ are the initial velocities of protease hydrolysis of the substrate after reaction with ZPI for the fixed reaction time and after reaching the reaction end point, respectively, vo is the velocity measured in control reactions without ZPI, and t is the fixed reaction time. The dependence of kobs on heparin concentration was computer fit by nonlinear least squares analysis by the ternary complex bridging model equation ([10]).
(§1) Apparent second-order rate constants for unaccelerated and H50-accelerated ZPI–FXa reactions were measured in the absence and presence of the optimal H50 concentration under pseudo–first-order conditions by analyzing full ZPI–FXa reaction progress curves over the ZPI concentration range of 10 to 900 nM with ∼0.5 nM FXa. Full reaction progress curves were also measured for ZPI–FXa reactions in the presence of PZ equimolar with ZPI, 25 μM lipid, and 5 mM CaCl2, as a function of the ZPI concentration in the range of 10 to 40 nM. Identical reaction mixtures were quenched at varying reaction times with substrate, and the time course of protease inactivation was measured from the decrease in initial rates of substrate hydrolysis. The first-order rate of decrease in protease activity with time was computer fit by a single exponential decay function with a nonzero end point and kobs obtained from the fitted exponential decay constant. Apparent second-order association rate constants (ka,app) were obtained from the slopes of linear plots of kobs versus the ZPI concentration according to the equation, kobs=kd+ka,app × [ZPI]0
(§2) In which kd represents the rate constant for ZPI–FXa complex dissociation and [ZPI]o is the total ZPI concentration. kd was fixed at the experimentally determined value of 10^−4 s^−1 for WT and ZPI mutants as described ([18]).
Fixed concentrations of FXa (50–100 nM FXa) were reacted with increasing concentrations of ZPI, ranging from a approximately threefold to sevenfold molar excess, in the absence of cofactors or in the presence of either 1 μM H50 or PZ equimolar with ZPI, 25 μM lipid, and 5 mM CaCl2, in kinetics buffer at 25 °C in reaction volumes of 50 μl. After allowing sufficient time to reach a reaction end point, based on measured second-order associate rate constants (∼5–30 min), remaining proteolytic activity was measured by reacting an aliquot (5–20 μl) of the reaction mixtures with 1 ml of 100 μM Spectrozyme fXa (American Diagnostica) containing 50 μg/ml Polybrene and 5 mM EDTA and monitoring the rate of absorbance change at 405 nm. The apparent SI was determined from the fitted abscissa intercept of a linear plot of residual protease activity against the molar ratio of inhibitor to protease ([18]). Because the ZPI–PZ complex dissociates to a small extent over the reaction time, apparent SIs depend on the time of incubation. To correct for such complex dissociation, apparent SIs were multiplied by the factor, exp (−kd × t), where kd is the measured complex dissociation rate constant of 10^−4 s^−1 and t the fixed reaction time. […]

Row | SI [moles ZPI/mole FXa] | ka,app × SI | ka,app × SI relative to WT | Molecule
1 | 7.8 ± 2.0 | 6.6 ± 2.7 × 10^4 M^−1 s^−1 | (0.06) | B1
2 | 4.0 ± 0.2 | 2.6 ± 0.3 × 10^4 M^−1 s^−1 | (0.02) | B2
3 | 2.8 ± 0.1 | 3.5 ± 0.4 × 10^5 M^−1 s^−1 | (0.29) | B3
4 | 4.6 ± 0.1 | 3.9 ± 0.2 × 10^6 M^−1 s^−1 | (3.2) | B4
5 | 1.5 ± 0.1 | 4.8 ± 0.7 × 10^5 M^−1 s^−1 | (0.40) | B5

same assay, conditions: 1 μM H50, 2.5 mM CaCl2, pH 7.4, 25 °C

Row | ka,app | Molecule
6 | 8.5 ± 1.3 × 10^3 M^−1 s^−1 | B1
7 | 6.4 ± 0.5 × 10^3 M^−1 s^−1 | B2
8 | 1.3 ± 0.1 × 10^5 M^−1 s^−1 | B3
9 | 8.3 ± 0.4 × 10^5 M^−1 s^−1 | B4
10 | 3.2 ± 0.2 × 10^5 M^−1 s^−1 | B5

same assay, conditions: ratio of heparin-accelerated to unaccelerated ka,app × SI

Row | H50 rate enhancement [fold] | Molecule
11 | 7.0 | B1
12 | 55 | B3
13 | 150 | B4
14 | 56 | B5

molecular target: T1, FXa; test: PZ-accelerated ZPI–FXa reactions: kinetics and stoichiometry of inhibition; format: biochemical; conditions: PZ-accelerated
Procedure: as §1, §2
(§3) Fixed concentrations of FXa (50–100 nM FXa) were reacted with increasing concentrations of ZPI, ranging from a approximately threefold to sevenfold molar excess, in the absence of cofactors or in the presence of either 1 μM H50 or PZ equimolar with ZPI, 25 μM lipid, and 5 mM CaCl2, in kinetics buffer at 25 °C in reaction volumes of 50 μl. After allowing sufficient time to reach a reaction end point, based on measured second-order associate rate constants (∼5–30 min), remaining proteolytic activity was measured by reacting an aliquot (5–20 μl) of the reaction mixtures with 1 ml of 100 μM Spectrozyme fXa (American Diagnostica) containing 50 μg/ml Polybrene and 5 mM EDTA and monitoring the rate of absorbance change at 405 nm. The apparent SI was determined from the fitted abscissa intercept of a linear plot of residual protease activity against the molar ratio of inhibitor to protease ([18]). Because the ZPI–PZ complex dissociates to a small extent over the reaction time, apparent SIs depend on the time of incubation. To correct for such complex dissociation, apparent SIs were multiplied by the factor, exp (−kd × t), where kd is the measured complex dissociation rate constant of 10^−4 s^−1 and t the fixed reaction time. Simulations verified the validity of this correction for small extents of dissociation. Reported SIs are average values of at least two independent measurements at different reaction times.

Row | SI [moles ZPI/mole FXa] | ka,app × SI | ka,app × SI relative to WT | Molecule
15 | 7.7 ± 0.1 | 8.5 ± 0.9 × 10^6 M^−1 s^−1 | (0.19) | B1
16 | 7.4 ± 0.3 | 2.5 ± 0.2 × 10^7 M^−1 s^−1 | (0.57) | B2
17 | 3.1 ± 0.1 | 2.1 ± 0.2 x 10^7 M^−1 s^−1 | (0.48) | B3
18 | 2.2 ± 0.1 | 1.8 ± 0.3 × 10^7 M^−1 s^−1 | (0.41) | B4
19 | 2.4 ± 0.1 | 7.2 ± 0.1 x 10^6 M^−1 s^−1 | (0.16) | B5

same assay, conditions: equimolar PZ, 25 μM phospholipid, 5 mM CaCl2, pH 7.4, 25 °C

Row | ka,app | Molecule
20 | 1.1 ± 0.1 × 10^6 M^−1 s^−1 | B1
21 | 3.4 ± 0.1 × 10^6 M^−1 s^−1 | B2
22 | 6.9 ± 0.5 × 10^6 M^−1 s^−1 | B3
23 | 8.4 ± 1.2 × 10^6 M^−1 s^−1 | B4
24 | 3.0 ± 0.2 × 10^6 M^−1 s^−1 | B5

same assay, conditions: ratio of PZ-accelerated to unaccelerated ka,app × SI

Row | PZ enhancement | Molecule
25 | 904 | B1
26 | 8620 | B2
27 | 3359 | B3
28 | 692 | B4
29 | 847 | B5

molecular target: T1, FXa; test: Unaccelerated ZPI–FXa reactions: kinetics and stoichiometry of inhibition; format: biochemical; conditions: not given
Procedure: as §1, §2, §3

Row | SI [moles ZPI/mole FXa] | ka,app × SI | ka,app × SI relative to WT | Molecule
30 | 3.4 ± 0.4 | 9.4 ± 1.6 × 10^3 M^−1 s^−1 | (0.59) | B1
31 | 3.2 ± 0.1 | 2.9 ± 0.2 × 10^3 M^−1 s^−1 | (0.18) | B2
32 | 2.7 ± 0.5 | 6.4 ± 1.3 × 10^3 M^−1 s^−1 | (0.40) | B3
33 | 3.6 ± 0.3 | 2.6 ± 0.2 × 10^4 M^−1 s^−1 | (1.6) | B4
34 | 2.1 ± 0.1 | 8.5 ± 1.2 × 10^3 M^−1 s^−1 | (0.53) | B5

same assay, conditions: absence of PZ, 2.5 mM CaCl2, pH 7.4, 25 °C

Row | ka,app | Molecule
35 | 2.8 ± 0.1 × 10^3 M^−1 s^−1 | B1
36 | 9.2 ± 0.6 × 10^2 M^−1 s^−1 | B2
37 | 2.4 ± 0.1 × 10^3 M^−1 s^−1 | B3
38 | 7.3 ± 0.1 × 10^3 M^−1 s^−1 | B4
39 | 4.1 ± 0.4 × 10^3 M^−1 s^−1 | B5
